Measurements from article PMC2602759.
“And” between values parts separate entries of the source, which are not always exact repeats. Identical values can stand only once.

Tests used:
[1] = target: HIV-1 integrase (IN) (HIV-1); experiment: SEC
[2] = target: HIV-1 integrase (IN) (HIV-1); experiment: cross-linking

With HIV-1 integrase (IN) (enzyme) the stoichiometry N [1] was 2 and 4 and the stoichiometry N [2] was 2.
